Non-standard residues stand in square brackets, D forms with d. alkynyl palmitic acid = FA, attached to pAzF by click chemistry; Phe(4-N3) = [N-]=[N+]=Nc1ccc(C[C@H](N)C(=O)O)cc1
Assays:
mouse serum albumin = molecular target: T1, mouse serum albumin (mouse, UniProt P07724 25-608); test: SPR; Biacore T200; HSA or MSA immobilised by amine coupling on CM5 chip (∼1,300 to 12,800 RU); ELP-GFP derivatives injected, twofold dilution series ∼0.28 to 60 µM; PBS running buffer; 60-s association, 600-s dissociation; steady-state affinity binding model; mean of four to eight independent measurements; details: both partners purified
T1 construct: serum albumin, mouse, from mouse serum; also called MSA; albumin from mouse serum; source: bought: Sigma, catalog #A3139 (albumin from mouse serum)
T1 sequence (P07724 25-608): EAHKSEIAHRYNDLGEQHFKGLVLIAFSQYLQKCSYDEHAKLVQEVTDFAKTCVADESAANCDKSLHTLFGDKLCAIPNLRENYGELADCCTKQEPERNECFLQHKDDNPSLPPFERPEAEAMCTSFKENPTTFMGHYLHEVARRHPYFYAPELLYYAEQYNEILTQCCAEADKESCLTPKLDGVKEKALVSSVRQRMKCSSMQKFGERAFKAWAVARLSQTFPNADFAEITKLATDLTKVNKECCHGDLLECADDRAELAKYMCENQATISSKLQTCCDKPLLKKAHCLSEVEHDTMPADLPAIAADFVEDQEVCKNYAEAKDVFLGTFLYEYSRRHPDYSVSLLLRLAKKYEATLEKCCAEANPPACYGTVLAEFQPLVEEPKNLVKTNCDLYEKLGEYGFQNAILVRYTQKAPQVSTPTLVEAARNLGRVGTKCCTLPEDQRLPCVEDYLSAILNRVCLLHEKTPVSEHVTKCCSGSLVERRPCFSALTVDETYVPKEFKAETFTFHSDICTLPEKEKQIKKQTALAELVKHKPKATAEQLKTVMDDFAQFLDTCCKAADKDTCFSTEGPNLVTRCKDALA

human serum albumin = molecular target: T2, human serum albumin (human, UniProt P02768 25-609); test: as above; details: both partners purified
T2 construct: serum albumin, human; also called HSA; source: bought: Sigma, catalog #A3782

B1: ELP(10FA)-GFP, ISAz treated (other)
chain: VPGAGVPG[Phe(4-N3)](alkynyl palmitic acid)GVPGGGVPGAGVPG[Phe(4-N3)](alkynyl palmitic acid)GVPGGGVPGAGVPG[Phe(4-N3)](alkynyl palmitic acid)GVPGGGVPGAGVPG[Phe(4-N3)](alkynyl palmitic acid)GVPGGGVPGAGVPG[Phe(4-N3)](alkynyl palmitic acid)GVPGGGVPGAGVPG[Phe(4-N3)](alkynyl palmitic acid)GVPGGGVPGAGVPG[Phe(4-N3)](alkynyl palmitic acid)GVPGGGVPGAGVPG[Phe(4-N3)](alkynyl palmitic acid)GVPGGGVPGAGVPG[Phe(4-N3)](alkynyl palmitic acid)GVPGGGVPGAGVPG[Phe(4-N3)](alkynyl palmitic acid)GVPGGG
modifications: not fully specified (C-terminus); also: pAzF coupled to alkynyl palmitic acid by click (triazole)
Mouse serum albumin
  Kd: 2220 nM
Human serum albumin
  Kd: 1640 nM

Reference: paper PMC8794819, “Tuning protein half-life in mouse using sequence-defined biopolymers functionalized with lipids” (Proceedings of the National Academy of Sciences of the …, 2022)
